Results published in patent publication US9084734B2, “Peptide personal care compositions and methods for their use” (Danisco US Inc., priority 2005, dated 2015).
One block for each molecule: values may come before it.

Assays:
VegF = molecular target: T1, VegF (Homo sapiens, UniProt P15692); experiment: Electrochemiluminescence (BioVeris) competition with Anti-VegF antibody for binding to VegF; details: ECL labeled Anti-VegF antibody, biotinylated VegF; for competition with Anti-VegF antibody for binding to VegF: 2 h room temperature
T1 construct: purchased PeproTech
T1 sequence (P15692 27-191 isoform P15692-4): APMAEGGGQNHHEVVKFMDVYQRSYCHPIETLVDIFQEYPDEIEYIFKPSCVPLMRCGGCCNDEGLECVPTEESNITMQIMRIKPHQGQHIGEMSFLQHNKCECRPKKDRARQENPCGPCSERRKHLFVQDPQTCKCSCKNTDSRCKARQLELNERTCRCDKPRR
Description: FIG. 19 provides a graph showing results from a competition analysis of 2BBlck81 versus anti-VegF antibody binding to VegF.
Briefly, after cleavage, the pH of the cleaved sample was adjusted to 5.5, the sample was then loaded onto the column (equilibrated with 25 mM MES pH 5.5). The free 2BBIck81 was washed through the column using 25 mM sodium acetate pH 5.0 while the BCE103 catalytic core remained bound to the resin. The 2BBIck81 fraction was concentrated by ultrafiltration and analyzed using an electrochemiluminescence (ECL) based binding assay (BioVeris). The Anti-VegF antibody (Santa Cruz) and VegF (PeproTech) were labeled with the electrochemiluminescent dye and biotin, respectively, as described by the manufacturer (BioVeris). All materials were in Dulbecco's PBS (Mediatech) supplemented with 0.1% TWEEN®-80. An initial dilution series of Anti-VegF antibody (125, 250 and 500 ng/ml) and VegF (100, 150, 200 and 250 ng/ml) were tested in the binding assay to determine the concentrations of each that would give a robust ECL signal.
For testing 2BBIck81 binding, 50 μL of 500 ng/ml ECL labeled Anti-VegF antibody, 50 μL of 250 ng/ml biotinylated VegF and 100 μL 2BBIck81 (series of 12.5, 15, 31.25, 62.5, 125, 250 or 500 ng/ml) were incubated at room temperature for 2 h with shaking. Then, 50 μL of 0.2 mg/ml streptavidin coated beads were added and the reaction was incubated at room temperature for 30 minutes. The ECL signal was measured using a BioVeris M8/384 Analyzer as described by the manufacturer (BioVeris).

Human VEGF165 = molecular target: T2, Human VEGF165 (Homo sapiens, UniProt P15692); experiment: BIAcore binding analysis of BBI-VEGF; details: refolded protein, trypsin and chymotrypsin coupled in remaining lanes
T2 construct: purchased Biosource
T2 sequence (P15692 27-191 isoform P15692-4): T1 sequence (P15692 27-191 isoform P15692-4)
Description: In this Example, experiments conducted to determine the binding affinity of constructs produced as indicated in Example 9 are described. Affinities of BBI-VEGF constructs for VEGF were measured using BIAcore-3000 surface plasmon resonance (Biacore). A CM5 sensor chip was conditioned with 50 mM NaOH and activated for covalent coupling of VEGF using N-ethyl-N′-(3-dimethylaminopropyl)-carbodiimide hydrochloride (EDC) and N-hydroxysuccinimide (NHS) according to the supplier's instructions (Biacore). VEGF (human VEGF165, Biosource) was diluted to 5 μg/mL in 20 mM sodium acetate, pH 4.8, and injected at a flow rate of 2 μL/min to achieve approximately 1000 to 6000 response units (RU) of coupled protein. Trypsin and chymotrypsin were similarly coupled to the CM5 sensor chip to approximately 850 to 3500 RU in remaining lanes. A solution of 1M ethanolamine was injected as a blocking agent.

[1] = tested on: skin of subjects with Fitzpatrick skin types III or IV; experiment: Skin lightening study, occlusive patches on lower back, clinical tanning grade; type: in vivo, human
Description: In this Example, experiments conducted to assess the skin lightening capabilities of BBI-AV are described. Thirteen subjects, ages 18-65, with Fitzpatrick skin types III or IV participated in this 22-day study. The Fitzpatrick skin classification is based on the skin's unprotected response to the first 30 to 45 minutes of sun exposure following a winter season without sun exposure. The categories of skin types are:
Five test sites of uniform color were marked on the lower back of each subject. The clinical grader assessed the degree of tan at each site using a 0-10 scale (0=very slight tan and 10=very deep tanning.). Each subject was pre-treated with one concentration of Molecule A, two concentrations of Molecule B, vehicle control buffer, and an untreated site for 11 consecutive days. Approximately 150 uL of test materials (0.1% and 0.9% of BBI-AV) and vehicle control were dosed onto the lower back using occlusive patches. Occlusive patches consisted of a Webril® (non-woven cotton) pad held to the skin with a porous, hypoallergenic tape (e.g., SCANPORE® or MICROPORE®). A strip of BLENDERM® tape equal in width of the cotton pad covered the outside of the tape to provide the occlusive patch. Patches remained in place until a clinician removed them the next day. This patching procedure was repeated for 11 days.
On day 12, the clinician removed the patches that were applied the previous day and the site was gently wiped to remove residual test material. The clinical grader assessed the degree of tan at each site using a […].

[2] = tested on: skin of individuals of skin type III and IV; experiment: Reduction of skin pigmentation induced by UVA exposure (MPPD), clinical tanning grade; type: in vivo, human; details: for Day 13 Avg. Tanning Grade / Day 14 Avg. Tanning Grade / Day 15 Avg. Tanning Grade: 1.0 MPPD UVA daily on days 12-14, 0-10 scale; for Change on Day 13 (tanning grade minus day 12 grade) / Change on Day 14 (tanning grade minus day 12 grade) / Change on Day 15 (tanning grade minus day 12 grade): UVA-induced pigmentation; for Day 12 Avg. Tanning Grade: after 11 days of patches, before UVA exposure, 0-10 scale
Description: In this Example, experiments conducted to test the ability of BBI-AV to reduce skin pigmentation induced by UVA exposure are described. This study was conducted with 13 individuals of skin type III and IV based on The Fitzpatrick skin classification. On day one, each subject's minimal persistent pigment darkening dose (MPPD) was determined on the lower back of each individual, in an area that is equal in color to the area that received test material application. […] Subjects returned to the clinic 34 hours after the MPPD exposures were complete. The test sites were scored for pigment darkening using the following scale: • - no visible pigment darkening • ? questionable response; unclear • + slight darkening over essentially the whole irradiation field • ++ definite darkening over the whole irradiation field The site treated with the lowest dose of UVA producing a score of ‘+’ represented that subject's MPPD. On day two, sites of uniform color were marked on the lower back. The clinical grader assessed the degree of tan at each site using a 0-10 scale (0=very slight tan and 10=very deep tanning.) Then the Test material (0.1% and 0.9% of BBI-AV) and the vehicle control applied under occlusion. A volume of 150 μl was dosed onto each patch. The occlusive patches used hte these experiments were the same as described in Example 2. As described in Example 2, the patches remained in place until the next day, when a clinician removed them. This patching procedure was repeated for 11 days. On the days 12-14, the clinician removed the patches that were applied the previous day and the site was gently wiped to remove residual test material. The clinical grader assessed the degree of tan at each site using a 0-10 scale (0=no tan and 10=very deep tanning.) After grading was complete, each site was exposed to 1.0 MPPD of UVA as described for Day 1. New patches were applied after exposures were completed. On day 15, patches were removed and the degree of tan at each site was assessed using a 0-10 scale (0=no tan and 10=very deep tanning). […] In this table, the tanning grade results are shown as the results obtained for day 12 subtracted from grades of days 13, 14 and 15.

B1: 1BBIck81: BBI with the grafted CK37281 peptide in the trypsin loop (protein)
chain: DDESSKPCCDQCACYNLYGWTCRCSDMRLNSCHSACKSCICALSYPAQCFCVDITDFCYEPCKPSEDDKEN
- competition with Anti-VegF antibody for binding to VegF (VegF): also competed with the Anti-VegF antibody

- specific/selective binding to VEGF (Human VEGF165): binds specifically to VEGF
- specific/selective binding to VEGF (Human VEGF165; listed as BBI-VEGF): Selective binding affinity to VEGF
B2: BBI-VEGF1: BBI-VEGF fusion (SEQ ID NO:22) with only one of the binding loops replaced (protein)
chain: DDESSKPCCDQCACYNLYGWTCRCSDMRLNSCHSACKSCICALSYPAQCFCVDLTDFCEPCKPSEDDKEN
modifications: synthetic fusion peptide

B3: BBI-AV: BBI sequences having anti-VEGF (AV) sequences incorporated; primary active of the personal care compositions (protein)
chain: B2 chain
- change in tanning grade versus vehicle control ([1]; 0.1% and 0.9% of BBI-AV, 150 uL under occlusive patches for 11 days, graded day 12): greater change in the tanning grade
- Change in Average Tanning Grade ([1]; 0.9% BBI-AV, Day 11 versus Day 1): −0.27
- Average Day 1 Tanning Grade ([1]; 0.9% BBI-AV, occlusive patch on lower back, baseline before treatment, clinical grader scale): 4.96
- Average Day 11 Tanning Grade ([1]; 0.9% BBI-AV, occlusive patches for 11 consecutive days, clinical grader scale): 4.69
- Day 13 Avg. Tanning Grade ([2]; 0.1% BBI-AV): 5.08
- Day 14 Avg. Tanning Grade ([2]; 0.1% BBI-AV): 5.13
- Day 15 Avg. Tanning Grade ([2]; 0.1% BBI-AV): 5.5
- Change on Day 13 (tanning grade minus day 12 grade) ([2]; 0.1% BBI-AV): 0.32
- Change on Day 14 (tanning grade minus day 12 grade) ([2]; 0.1% BBI-AV): 0.37
- Change on Day 15 (tanning grade minus day 12 grade) ([2]; 0.1% BBI-AV): 0.74
- Day 12 Avg. Tanning Grade ([2]; 0.1% BBI-AV): 4.76
- UVA induced pigmentation ([2]; 0.1% and 0.9% of BBI-AV under occlusion, 1.0 MPPD of UVA on days 12-14): UVA induced pigmentation is decreased
- Day 13 Avg. Tanning Grade ([2]; 0.9% BBI-AV): 4.92
- Day 14 Avg. Tanning Grade ([2]; 0.9% BBI-AV): 5.04
- Day 15 Avg. Tanning Grade ([2]; 0.9% BBI-AV): 5.5
- Change on Day 13 (tanning grade minus day 12 grade) ([2]; 0.9% BBI-AV): 0.23
- Change on Day 14 (tanning grade minus day 12 grade) ([2]; 0.9% BBI-AV): 0.35
- Change on Day 15 (tanning grade minus day 12 grade) ([2]; 0.9% BBI-AV): 0.81
- Day 12 Avg. Tanning Grade ([2]; 0.9% BBI-AV): 4.69

B4: 2BBIck81: BBI with the grafted CK37281 peptide in the chymotrypsin loop (protein)
chain: DDESSKPCCDQCACTKSNPPQCRCSDMRLNSCHSACKSCACYNLYGWTCFCVDITDFCYEPCKPSEDDKEN
- competition for VegF binding compared with synthesized CK37281 peptide (VegF): competed for VegF binding better than the synthesized CK37281 peptide itself
- competition with Anti-VegF antibody for binding to VegF (VegF): competed with the Anti-VegF antibody for binding to VegF at micromolar concentrations
